For series [1], the target named is T1, MdNAC4-GST (Malus domestica, UniProt B6DXL4 1-350).
T1 sequence: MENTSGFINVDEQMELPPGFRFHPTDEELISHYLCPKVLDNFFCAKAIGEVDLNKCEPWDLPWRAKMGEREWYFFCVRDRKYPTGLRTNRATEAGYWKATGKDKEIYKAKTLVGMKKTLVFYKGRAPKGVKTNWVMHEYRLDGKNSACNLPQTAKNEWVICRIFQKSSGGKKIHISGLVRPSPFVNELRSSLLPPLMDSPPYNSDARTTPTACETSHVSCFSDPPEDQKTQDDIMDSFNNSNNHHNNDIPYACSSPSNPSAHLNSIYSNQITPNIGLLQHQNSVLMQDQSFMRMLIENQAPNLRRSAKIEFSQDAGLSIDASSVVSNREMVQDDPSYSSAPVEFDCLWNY
Description: EMSA; unlabeled probe competes; EMSA binding buffer (composition not given), 24 °C, 30 min in the dark. The settings on record: protein: recombinant; tags: GST (pGEX-4T-1 type primers GST-MdNAC4-F/R); chain copies: 2; label: biotin; blunt.

For series [2], the target named is T1, MdNAC4-GST. Description: EMSA; EMSA binding buffer (composition not given), 24 °C, 30 min in the dark. The settings on record: protein: recombinant; tags: GST (pGEX-4T-1 type primers GST-MdNAC4-F/R); chain copies: 2; blunt.

This is an account of results in paper PMC9280364, “MdNAC4 Interacts With MdAPRR2 to Regulate Nitrogen Deficiency-Induced Leaf Senescence in Apple (Malus domestica)”.

B1: MdPAO promoter probe (ABRE) (dsDNA)
DNA 1: AGTTATCCATACGTGTAAAACCAAT
DNA 2: ATTGGTTTTACACGTATGGATAACT
With B1, the binding result with MdNAC4-GST [1] was “binds”.

B2: MdNYC1 promoter probe (ABRE) (dsDNA)
DNA 1: ATATAGGCACGTGAAGGGAGGACAGAGATG
DNA 2: CATCTCTGTCCTCCCTTCACGTGCCTATAT
Turning to B2, the binding result in the series with MdNAC4-GST [1] is “binds”.

B3: MdPAO Mut probe (dsDNA)
DNA 1: AGTTATCCATCCGTCTAAAACCAAT
DNA 2: ATTGGTTTTAGACGGATGGATAACT
As for B3, the binding result with MdNAC4-GST [2] is reported as “no binding”.
